As a reminder, the Kd is the constant that tells how readily two partners part at equilibrium. One may read the koff as the rate constant with which the complex falls apart. Lower therefore signals slow dissociation. As usually defined, the kon is the second-order rate constant of association. Low readings indicate slower complex formation, high ones faster complex formation.

Drawing on article PMC8244301, this text covers Kd, koff and kon for two substances.

Assay [1] has as its target Full-length L. rhamnosus GG SpaB (GG-SpaBFL) protein (residues 33-205) (Lactobacillus rhamnosus GG). Nature of the assay: BLI. The note with it: group.
Assay [2] has as its target Truncated GG-SpaB (GG-SpaB_(C-trun)) protein (residues 31-184) (Lactobacillus rhamnosus GG). Put plainly: BLI. The note with it: group.
Assay [3] has as its target Full-length L. rhamnosus GG SpaB (GG-SpaBFL) protein (residues 33-205) (Lactobacillus rhamnosus GG). Put plainly: BLI; GG-SpaB protein (10 uM) immobilised on aminopropylsilane (APS) biosensors; mucin Type II (~19.5-312 nM) as analyte; PBS (10 mM sodium phosphate pH 7.4, 137 mM NaCl, 2.7 mM KCl), 30 C; ~600 s association, ~900 s dissociation; 1:1 binding fit; in duplicate. In general terms: BLI is a label-free optical method that tracks binding on a fibre tip over time.

Assay [4] addresses Truncated L. rhamnosus GG SpaB (GG-SpaBC-trun) protein (residues 31-184) (Lactobacillus rhamnosus GG). The assay is described as above.

In the case of porcine gastric mucin (Type II), the Kd in assay [1] came out at 0.3 nM; in assay [2], 2.6 nM.

In the case of “porcine gastric mucin (Type II) (Sigma-Aldrich)”, in assay [3], the Kd was found to be 0.306 nM, the off-rate constant (koff) was determined as 1.09e-05 s⁻¹ and the kon is 35300 M⁻¹ s⁻¹. In assay [4], this substance showed a Kd of 2.55 nM, a koff of 6.86e-05 s⁻¹ and a kon of 26300 M⁻¹ s⁻¹.
